Test results: patent publication US20240140995A1 (ROCHE DIAGNOSTICS OPERATIONS, published 2024)

B1: E. coli ColE-7 (other)
chain: ESKRNKPGKATGKGKPVNNKWLNNAGKDLGSPVPDRIANKLRDKEFKSFDDFRKKFWEEVSKDPELSKQFSRNNNDRMKVGKAPKTRTQDVSGKRTSFELHHEKPISQNGGVYDMDNISVVTPKRHIDIHRGK
B2: E. coli IM-7, singly biotinylated (other)
chain: MELKNSISDYTEAEFVQLLKEIEKENVAATDDVLDVLLEHFVKITEHPDGTDLIYYPSDNRDDSPEGIVKEIKEWRAANGKPGFKQG

Key:
[1] = target: GthIM (Geobacillus thermoglucosidasius immunity protein, C18A, engineered), singly biotinylated (Geobacillus thermoglucosidasius); assay: SPR Biacore T200, 37 C, single cycle kinetics; biotinylated immunity protein on streptavidin sensor, colicin analyte 1.1-90 nM
E. coli ColE-7 [2] = target: B1; assay: SPR Biacore T200, 37 C, single cycle kinetics
E. coli ColE-7 [3] = target: B1; assay: SPR Biacore T200, 37 C, single cycle kinetics; biotinylated immunity protein on streptavidin sensor, colicin analyte 1.1-90 nM

Binder | Kd [1] [nM] | koff [1] [s⁻¹] | kon [1] [M⁻¹ s⁻¹] | complex half-life t/2-diss (E. coli ColE-7 [2]) [h] | Kd (E. coli ColE-7 [3]) [nM] | MR (Molar Ratio, binding stoichiometry) (E. coli ColE-7 [3]) | koff (E. coli ColE-7 [3]) [s⁻¹] | kon (E. coli ColE-7 [3]) [M⁻¹ s⁻¹]
B1 | 13 | 0.1 | 1e+07 |  |  |  |  | 
B2 |  |  |  | > 19.2 | < 0.0057 | 1.2 | < 1e-05 | 1.8e+06
